Results published in PMC9352680, “A comprehensive thermodynamic model for RNA binding by the Saccharomyces cerevisiae Pumilio protein PUF4”.
Residue numbers refer to the chain shown, from its start. In names and notes the source's numbering stands.

T1: PUF4 RNA-binding domain (Saccharomyces cerevisiae, UniProt P25339 537-888)
T1 sequence: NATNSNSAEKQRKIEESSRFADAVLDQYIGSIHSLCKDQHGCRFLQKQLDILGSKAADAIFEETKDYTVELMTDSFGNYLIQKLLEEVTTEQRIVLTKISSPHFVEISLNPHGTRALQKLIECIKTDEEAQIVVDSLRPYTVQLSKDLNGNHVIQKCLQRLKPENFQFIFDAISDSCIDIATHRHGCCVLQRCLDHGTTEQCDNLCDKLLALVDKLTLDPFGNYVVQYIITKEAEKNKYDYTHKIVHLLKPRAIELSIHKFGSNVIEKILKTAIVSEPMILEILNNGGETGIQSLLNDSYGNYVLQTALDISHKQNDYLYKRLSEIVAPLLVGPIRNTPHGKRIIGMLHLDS

B1: Ib_S2_P4E.1_K4.1_C4.1_H4.1_A4.1_[T5A]_F4.1_[A9G]_T4.1 (ssRNA)
RNA: UUUGAUUAAUAUGAUAUCGUUCUUUCUUGUAAAUUGUUCUUUCUCGAUAUCAUAUUAAUCUUU
B2: Ib_S2_P4E.1_K4.1_C4.1_H4.1_[G2A]_[A4T]_A4.1_F4.1_T4.1 (ssRNA)
RNA: B1 RNA with G29A, A31U, A32U, G36A
B3: Ib_S2_P4E.1_K4.1_C4.1_H4.1_[T1A]_A4.1_[A6T]_F4.1_T4.1 (ssRNA)
RNA: B1 RNA with U28A, A32U, A33U, G36A
B4: Ib_S2_P4E.1_K4.1_C4.1_H4.1_A4.1_[T5A]_F4.1_[A9C]_T4.1 (ssRNA)
RNA: B1 RNA with G36C
B5: Ib_S2_P4E.1_K4.1_C4.1_H4.1_A4.1_[T7C]_F4.1_[A9T]_T4.1 (ssRNA)
RNA: B1 RNA with A32U, U34C, G36U
B6: Ib_S2_P4E.1_K4.1_C4.1_H4.1_[G2C]_A4.1_[T7C]_F4.1_T4.1 (ssRNA)
RNA: B1 RNA with G29C, A32U, U34C, G36A
B7: Ib_S2_P4E.1_K4.1_C4.1_H4.1_[G2T]_A4.1_[A6C]_F4.1_T4.1 (ssRNA)
RNA: B1 RNA with G29U, A32U, A33C, G36A
B8: Ic_S2_P4E.1_K4.1_C4.1_H4.1_A4.1_[A6C]_F4.1_[A9C]_T4.1 (ssRNA)
RNA: B1 RNA with A32U, A33C, G36C
B9: Ib_S2_P4E.1_K4.1_C4.1_H4.1_[T3C]_[A4C]_A4.1_F4.1_T4.1 (ssRNA)
RNA: B1 RNA with U30C, A31C, A32U, G36A
B10: Ib_S2_P4E.1_K4.1_C4.1_H4.1_[T3C]_A4.1_[T5C]_F4.1_T4.1 (ssRNA)
RNA: B1 RNA with U30C, A32C, G36A
B11: Ib_S2_P4E.1_K4.1_C4.1_H4.1_[G2T]_A4.1_[T5A]_F4.1_T4.1 (ssRNA)
RNA: B1 RNA with G29U, G36A
B12: Ib_S2_P4E.1_K4.1_C4.1_H4.1_[T1G]_[A4C]_A4.1_F4.1_T4.1 (ssRNA)
RNA: B1 RNA with U28G, A31C, A32U, G36A
B13: Ib_S2_P4E.1_K4.1_C4.1_H4.1_A4.1_[A6G]_F4.1_[A9T]_T4.1 (ssRNA)
RNA: B1 RNA with A32U, A33G, G36U
B14: Ic_S2_P4E.1_K4.1_C4.1_H4.1_A4.1_[T7G]_F4.1_[A9T]_T4.1 (ssRNA)
RNA: B1 RNA with A32U, U34G, G36U
B15: Ib_S2_P4E.1_K4.1_C4.1_H4.1_[G2A]_[T3C]_A4.1_F4.1_T4.1 (ssRNA)
RNA: B1 RNA with G29A, U30C, A32U, G36A
B16: Ic_S2_P4E.1_K4.1_C4.1_H4.1_A4.1_[T7A]_F4.1_[A9G]_T4.1 (ssRNA)
RNA: B1 RNA with A32U, U34A
B17: Ib_S2_P4E.1_K4.1_C4.1_H4.1_[T1C]_A4.1_[A6T]_F4.1_T4.1 (ssRNA)
RNA: B1 RNA with U28C, A32U, A33U, G36A
B18: Ib_S2_P4E.1_K4.1_C4.1_H4.1_[T1G]_[A4G]_A4.1_F4.1_T4.1 (ssRNA)
RNA: B1 RNA with U28G, A31G, A32U, G36A
B19: Ib_S2_P4E.1_K4.1_C4.1_H4.1_A4.1_[A6T]_F4.1_[A9C]_T4.1 (ssRNA)
RNA: B1 RNA with A32U, A33U, G36C
B20: Ib_S2_P4E.1_K4.1_C4.1_H4.1_[G2T]_A4.1_[A6T]_F4.1_T4.1 (ssRNA)
RNA: B1 RNA with G29U, A32U, A33U, G36A
B21: Ia_S2_P4E.1_K4.1_C4.1_H4.1_[G2C]_A4.1_F4.1_T4.1 (ssRNA)
RNA: B1 RNA with G29C, A32U, G36A
B22: Ib_S2_P4E.1_K4.1_C4.1_H4.1_[T1G]_[T3C]_A4.1_F4.1_T4.1 (ssRNA)
RNA: B1 RNA with U28G, U30C, A32U, G36A
B23: Ib_S2_P4E.1_K4.1_C4.1_H4.1_[G2T]_[A4C]_A4.1_F4.1_T4.1 (ssRNA)
RNA: B1 RNA with G29U, A31C, A32U, G36A
B24: Ib_S2_P4E.1_K4.1_C4.1_H4.1_[G2T]_[T3A]_A4.1_F4.1_T4.1 (ssRNA)
RNA: B1 RNA with G29U, U30A, A32U, G36A
B25: Ib_S2_P4E.1_K4.1_C4.1_H4.1_[T1A]_A4.1_[T7G]_F4.1_T4.1 (ssRNA)
RNA: B1 RNA with U28A, A32U, U34G, G36A
B26: Ia_S2_P4E.1_K4.1_C4.1_H4.1_[T1A]_A4.1_F4.1_T4.1 (ssRNA)
RNA: B1 RNA with U28A, A32U, G36A
B27: Ib_S2_P4E.1_K4.1_C4.1_H4.1_[T1G]_A4.1_[T7A]_F4.1_T4.1 (ssRNA)
RNA: B1 RNA with U28G, A32U, U34A, G36A
B28: Ia_S2_P4E.1_K4.1_C4.1_H4.1_[G2T]_A4.1_F4.1_T4.1 (ssRNA)
RNA: B1 RNA with G29U, A32U, G36A
B29: Ib_S2_P4E.1_K4.1_C4.1_H4.1_A4.1_[A6T]_F4.1_[A9T]_T4.1 (ssRNA)
RNA: B1 RNA with A32U, A33U, G36U
B30: Ib_S2_P4E.1_K4.1_C4.1_H4.1_[G2C]_[T3A]_A4.1_F4.1_T4.1 (ssRNA)
RNA: B1 RNA with G29C, U30A, A32U, G36A
B31: Ib_S2_P4E.1_K4.1_C4.1_H4.1_[T1C]_A4.1_[A6G]_F4.1_T4.1 (ssRNA)
RNA: B1 RNA with U28C, A32U, A33G, G36A
B32: Ic_S2_P4E.1_K4.1_C4.1_H4.1_A4.1_[T7A]_F4.1_[A9T]_T4.1 (ssRNA)
RNA: B1 RNA with A32U, U34A, G36U
B33: Ib_S2_P4E.1_K4.1_C4.1_H4.1_[T3C]_[A4T]_A4.1_F4.1_T4.1 (ssRNA)
RNA: B1 RNA with U30C, A31U, A32U, G36A
B34: Ib_S2_P4E.1_K4.1_C4.1_H4.1_[G2C]_A4.1_[A6G]_F4.1_T4.1 (ssRNA)
RNA: B1 RNA with G29C, A32U, A33G, G36A
B35: Ib_S2_P4E.1_K4.1_C4.1_H4.1_[G2T]_A4.1_[A6G]_F4.1_T4.1 (ssRNA)
RNA: B1 RNA with G29U, A32U, A33G, G36A
B36: Ic_S2_P4E.1_K4.1_C4.1_H4.1_A4.1_[T5C]_F4.1_[A9C]_T4.1 (ssRNA)
RNA: B1 RNA with A32C, G36C
B37: Ib_S2_P4E.1_K4.1_C4.1_H4.1_A4.1_[T5A]_F4.1_[A9T]_T4.1 (ssRNA)
RNA: B1 RNA with G36U
B38: Ib_S2_P4E.1_K4.1_C4.1_H4.1_[T3C]_A4.1_[A6G]_F4.1_T4.1 (ssRNA)
RNA: B1 RNA with U30C, A32U, A33G, G36A
B39: Ia_S2_P4E.1_K4.1_C4.1_H4.1_[A4C]_A4.1_F4.1_T4.1 (ssRNA)
RNA: B1 RNA with A31C, A32U, G36A
B40: Ib_S2_P4E.1_K4.1_C4.1_H4.1_[T1G]_[G2T]_A4.1_F4.1_T4.1 (ssRNA)
RNA: B1 RNA with U28G, G29U, A32U, G36A
B41: Ib_S2_P4E.1_K4.1_C4.1_H4.1_[T1A]_[G2C]_A4.1_F4.1_T4.1 (ssRNA)
RNA: B1 RNA with U28A, G29C, A32U, G36A
B42: Ib_S2_P4E.1_K4.1_C4.1_H4.1_A4.1_[A6G]_F4.1_[A9G]_T4.1 (ssRNA)
RNA: B1 RNA with A32U, A33G
B43: Ib_S2_P4E.1_K4.1_C4.1_H4.1_[G2T]_[A4T]_A4.1_F4.1_T4.1 (ssRNA)
RNA: B1 RNA with G29U, A31U, A32U, G36A
B44: Ic_S2_P4E.1_K4.1_C4.1_H4.1_A4.1_F4.1_[A9T]_T4.1 (ssRNA)
RNA: B1 RNA with A32U, G36U
B45: Ib_S2_P4E.1_K4.1_C4.1_H4.1_[T1A]_[G2A]_A4.1_F4.1_T4.1 (ssRNA)
RNA: B1 RNA with U28A, G29A, A32U, G36A
B46: Ib_S2_P4E.1_K4.1_C4.1_H4.1_[T1G]_A4.1_[T5C]_F4.1_T4.1 (ssRNA)
RNA: B1 RNA with U28G, A32C, G36A
B47: Ib_S2_P4E.1_K4.1_C4.1_H4.1_[G2A]_A4.1_[T7G]_F4.1_T4.1 (ssRNA)
RNA: B1 RNA with G29A, A32U, U34G, G36A
B48: Ib_S2_P4E.1_K4.1_C4.1_H4.1_[T1G]_A4.1_[A6T]_F4.1_T4.1 (ssRNA)
RNA: B1 RNA with U28G, A32U, A33U, G36A
B49: Ib_S2_P4E.1_K4.1_C4.1_H4.1_[G2A]_[A4C]_A4.1_F4.1_T4.1 (ssRNA)
RNA: B1 RNA with G29A, A31C, A32U, G36A
B50: Ib_S2_P4E.1_K4.1_C4.1_H4.1_[G2A]_[T3A]_A4.1_F4.1_T4.1 (ssRNA)
RNA: B1 RNA with G29A, U30A, A32U, G36A
B51: Ib_S2_P4E.1_K4.1_C4.1_H4.1_A4.1_[A6C]_F4.1_[A9G]_T4.1 (ssRNA)
RNA: B1 RNA with A32U, A33C
B52: Ic_S2_P4E.1_K4.1_C4.1_H4.1_A4.1_[T7G]_F4.1_[A9G]_T4.1 (ssRNA)
RNA: B1 RNA with A32U, U34G
B53: Ib_S2_P4E.1_K4.1_C4.1_H4.1_[G2A]_A4.1_[A6C]_F4.1_T4.1 (ssRNA)
RNA: B1 RNA with G29A, A32U, A33C, G36A
B54: Ib_S2_P4E.1_K4.1_C4.1_H4.1_[T1C]_A4.1_[T7G]_F4.1_T4.1 (ssRNA)
RNA: B1 RNA with U28C, A32U, U34G, G36A
B55: Ib_S2_P4E.1_K4.1_C4.1_H4.1_[T1A]_A4.1_[T5A]_F4.1_T4.1 (ssRNA)
RNA: B1 RNA with U28A, G36A
B56: Ib_S2_P4E.1_K4.1_C4.1_H4.1_[T1C]_[A4G]_A4.1_F4.1_T4.1 (ssRNA)
RNA: B1 RNA with U28C, A31G, A32U, G36A
B57: Ib_S2_P4E.1_K4.1_C4.1_H4.1_A4.1_[A6C]_F4.1_[A9T]_T4.1 (ssRNA)
RNA: B1 RNA with A32U, A33C, G36U
B58: Ib_S2_P4E.1_K4.1_C4.1_H4.1_A4.1_[T7A]_F4.1_[A9C]_T4.1 (ssRNA)
RNA: B1 RNA with A32U, U34A, G36C
B59: Ib_S2_P4E.1_K4.1_C4.1_H4.1_[G2A]_[A4G]_A4.1_F4.1_T4.1 (ssRNA)
RNA: B1 RNA with G29A, A31G, A32U, G36A

Biological target: T1, PUF4 RNA-binding domain
Assay: Mg; RNA-MaP; 20 mM Na-HEPES pH 7.4, 30 mM KOAc, 0.75 mM MgCl2, 0.1% Tween-20, 5% glycerol, 0.1 mg/mL BSA, 2 mM DTT; 25 C; 0.0125-409.6 nM protein
Settings: tags: N-His6-TEV cleaved; C-SNAP kept, Cy3B-labelled; label: tethered on chip by stalled RNA polymerase

Binder | Kd [nM]
B1 | 9.22
B2 | 852
B3 | 739
B4 | 17.1
B5 | 2.73
B6 | 190
B7 | > 2300
B8 | 14.5
B9 | 1130
B10 | 14.6
B11 | 1900
B12 | 1520
B13 | 18.3
B14 | 11.6
B15 | 1430
B16 | 5.97
B17 | 126
B18 | 18.6
B19 | 20.5
B20 | 1390

Binder | Kd [nM]
B21 | 151
B22 | 222
B23 | > 2300
B24 | 2120
B25 | 550
B26 | 103
B27 | 303
B28 | 137
B29 | 9.83
B30 | > 2300
B31 | 795
B32 | 4.33
B33 | 667
B34 | 1150
B35 | > 2300
B36 | 2.72
B37 | 11
B38 | 777
B39 | 4.11
B40 | 7.76

Binder | Kd [nM]
B41 | 174
B42 | 26.5
B43 | > 2300
B44 | 1.55
B45 | 616
B46 | 21.1
B47 | 80.2
B48 | 497
B49 | 1120
B50 | > 2300
B51 | 9.54
B52 | 6.7
B53 | 154
B54 | 132
B55 | 657
B56 | 7.32
B57 | 8.41
B58 | 12.3
B59 | 13.3
